In data set [1] the target is LI-cadherin EC1-4 (Homo sapiens) (UniProt Q12864). As to the kind of experiment: SV-AUC. Particulars: cited from earlier work.
Data set [2] addresses LI-cadherin EC1-2 (Homo sapiens) (UniProt Q12864). In words: SV-AUC. The conditions noted are these: cited from earlier work.
In another data set the target is T1, LI-cadherin EC1-2K115E (human).
T1 chain: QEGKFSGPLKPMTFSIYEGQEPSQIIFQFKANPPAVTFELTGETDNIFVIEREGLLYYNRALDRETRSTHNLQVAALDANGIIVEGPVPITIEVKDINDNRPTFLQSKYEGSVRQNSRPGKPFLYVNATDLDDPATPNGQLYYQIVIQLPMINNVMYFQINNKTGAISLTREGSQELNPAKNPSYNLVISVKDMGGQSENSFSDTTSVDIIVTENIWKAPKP
As to the kind of experiment: AUC; sedimentation velocity (SV-AUC), 20 °C, 42,000 rpm, UV detection; 1-120 µM EC1-4K115E or 1-60 µM EC1-2K115E; buffer A (10 mM HEPES-NaOH pH 7.5, 150 mM NaCl, 3 mM CaCl2); homodimer to monomers. Particulars: both partners purified.

Data set [3] concerns the molecule itself. Described as above.

One may read the Kd as the free concentration of one partner at which half of the binding sites on the other are occupied at equilibrium, for simple one-to-one binding. On to LI-cadherin EC1-4 (from UniProt Q12864), for which, in data set [1], the Kd was 39.8 µM.

As for LI-cadherin EC1-2 (from UniProt Q12864), the Kd in data set [2] is 75 µM.

B1: LI-cadherin EC1-2K115E (domain or fragment)
chain: QEGKFSGPLKPMTFSIYEGQEPSQIIFQFKANPPAVTFELTGETDNIFVIEREGLLYYNRALDRETRSTHNLQVAALDANGIIVEGPVPITIEVKDINDNRPTFLQSKYEGSVRQNSRPGKPFLYVNATDLDDPATPNGQLYYQIVIQLPMINNVMYFQINNKTGAISLTREGSQELNPAKNPSYNLVISVKDMGGQSENSFSDTTSVDIIVTENIWKAPKP
modifications: N-glycosylated (Expi293F expression, N-glycans on EC2); Ca2+-bound (3 mM CaCl2). Limits by convention: mature N-terminus Gln23 (as in 7CYM) to end of UniProt Cadherin 2 domain (244). C-terminal …
Broadly, the stoichiometry N is the number of molecules, sites or subunits per partner or assembly. On to B1, for which, in the data set with LI-cadherin EC1-2K115E, the Kd came out at 343 µM and the “stoichiometry N” value was found to be 2.

B2: LI-cadherin EC1-4K115E (domain or fragment, human)
chain: QEGKFSGPLKPMTFSIYEGQEPSQIIFQFKANPPAVTFELTGETDNIFVIEREGLLYYNRALDRETRSTHNLQVAALDANGIIVEGPVPITIEVKDINDNRPTFLQSKYEGSVRQNSRPGKPFLYVNATDLDDPATPNGQLYYQIVIQLPMINNVMYFQINNKTGAISLTREGSQELNPAKNPSYNLVISVKDMGGQSENSFSDTTSVDIIVTENIWKAPKPVEMVENSTDPHPIKITQVRWNDPGAQYSLVDKEKLPRFPFSIDQEGDIYVTQPLDREEKDAYVFYAVAKDEYGKPLSYPLEIHVKVKDINDNPPTCPSPVTVFEVQENERLGNSIGTLTAHDRDEENTANSFLNYRIVEQTPKLPMDGLFLIQTYAGMLQLAKQSLKKQDTPQYNLTIEVSDKDFKTLCFVQINVID
notes: Liver Intestine-cadherin (LI-cadherin, CDH17), human; the first four N-terminal extracellular cadherin repeats EC1-4, with the SNP change Lys115 to Glu (c.343A>G); Made in mammalian cells, N-glycosylated; K115E is a SNP variant found in patients, made here by site-directed mutagenesis; also called K115E of EC1-4; source: Expi293F, transfected (pcDNA3.4), purified from the supernatant (Ni-NTA, SEC)
As to B2, in data set [3], binding was put at a Kd of 51.6 µM and the “stoichiometry N” value was 2.

Values taken from article PMC10117238, “Molecular mechanism underlying the increased risk of colorectal cancer metastasis caused by single nucleotide polymorphisms in LI-cadherin gene” (Scientific Reports, 2023).
